From patent US20240343770A1 (SUNSHINE LAKE PHARMA, published 2024) come the findings set out here.

Numbering of substitutions follows the chain as printed. Names may count otherwise.

Series [1] has as its target human GFRAL (human) (UniProt Q6UXV0). Kind of series: cell-based or functional assay.
Series [2] concerns the molecule itself. Kind of series: SEC of the purified Fc (self-association, aggregate state).
Series [3] concerns the molecule itself. Kind of series: SEC of the purified Fc (self-association).

Chain of human GFRAL (human) (Q6UXV0 19-394): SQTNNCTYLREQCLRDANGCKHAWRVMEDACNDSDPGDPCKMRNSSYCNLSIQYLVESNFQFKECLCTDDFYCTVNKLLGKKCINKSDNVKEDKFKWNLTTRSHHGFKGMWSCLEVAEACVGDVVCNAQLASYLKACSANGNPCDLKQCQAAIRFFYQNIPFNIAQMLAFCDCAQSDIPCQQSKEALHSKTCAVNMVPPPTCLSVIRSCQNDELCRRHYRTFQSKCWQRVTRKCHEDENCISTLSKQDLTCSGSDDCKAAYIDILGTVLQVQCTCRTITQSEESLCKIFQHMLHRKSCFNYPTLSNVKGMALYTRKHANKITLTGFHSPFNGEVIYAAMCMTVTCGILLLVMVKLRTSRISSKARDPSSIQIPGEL

Consider “native GDF15 (from UniProt Q99988 197-308) (ligand)”, for which the Relative activity ratio (native GDF15 EC50 : construct EC50), phospho-ERK1/2 HTRF in HEK293T cells expressing human GFRAL and RET in series [1] was found to be 1.

B1: IgG4 Fc (AA, K439E) (other)
chain: EAAGGPSVFLFPPKPKDTLMISRTPEVTCVVVDVSQEDPEVQFNWYVDGVEVHNAKTKPREEQFNSTYRVVSVLTVLHQDWLNGKEYKCKVSNKGLPSSIEKTISKAKGQPREPQVYTLPPSQEEMTKNQVSLTCLVKGFYPSDIAVEWESNGQPENNYKTTPPVLDSDGSFFLYSRLTVDKSRWQEGNVFSCSVMHEALHNHYTQESLSLSLG
notes: One Fc polypeptide
In the case of B1, the binding result in series [2] is “binds”.

B2: IgG4 Fc (AA, F405Q/Y407E) (other)
chain: B1 chain with F173Q, Y175E, E207K
notes: Control Fc; found as a monomer by SEC; also called monomeric Fc molecule
Turning to B2, the binding result in series [3] is reported as “no binding”.

B3: IgG4 Fc (AA, K439D) (other)
chain: B1 chain with E207D
notes: One Fc polypeptide
Regarding B3, in series [2], the binding result is listed as “binds”.
